Results as given in patent US20080286277A1 (GLYCART BIOTECHNOLOGY, published 2008).
Changes are numbered by the printed parent chain.

B1: humanized ICR62 antibody I-HLA2/I-KC (antibody, human IgG1, V domains shown)
VH: QVQLVQSGAEVKKPGASVKVSCKASGFTFTDYYMHWVRQAPGQGLEWMGWINPNSGYSTYNEKFQGQVTISADKSISTAYLQWSSLKASDTAMYYCARLSPGGYYVMDAWGQGTTVTVSS
VL: DIQMTQSPSSLSASVGDRVTITCRASQGINNYLNWYQQKPGKAPKRLIYNTNNLQTGVPSRFSGSGSGTEFTLTISSLQPEDFATYYCLQHNSFPTFGQGTKLEIKR
B2: humanized ICR62 antibody I-HLA/I-KA (antibody, human IgG1, V domains shown)
VH: QVQLVQSGAEVKKPGASVKVSCKASGFTFTDYYMHWVRQAPGQGLEWMGWINPNSGYSTYAQKFQGRVTMTADTSISTAYMELSRLRSDDTAVYYCARLSPGGYYVMDAWGQGTTVTVSS
VL: B1 VL with F71Y
B3: humanized ICR62 antibody I-HHB/I-KC (not glycoengineered) (antibody, V domains shown)
VH: QVQLVQSGAEVKKPGSSVKVSCKGSGFTFTDYKIHWVRQAPGQGLEWMGYFNPNSGYSTYAQKFQGRVTITADKSTSTAYMELSSLRSEDTAVYYCARLSPGGYYVMDAWGQGTTVTVSS
VL: B1 VL
notes: also called I-HHB/KC
B4: humanized ICR62 antibody I-HLA1/I-KC (antibody, human IgG1, V domains shown)
VH: B1 VH with N61S, E62P, K63S
VL: B1 VL
B5: humanized ICR62 antibody I-HLA7/I-KC (antibody, human IgG1, V domains shown)
VH: B1 VH with V2M, A9P, A16T, Y33K, M34I, P41R, G44R, M48I
VL: B1 VL
B6: humanized ICR62 antibody I-HLA8/I-KC (antibody, human IgG1, V domains shown)
VH: B3 VH with V2M, A9P, S16T, G24A
VL: B1 VL
B7: humanized ICR62 antibody I-HLA5/I-KC (antibody, human IgG1, V domains shown)
VH: B1 VH with V2M, A9P, A16T, N61S, E62P, K63S
VL: B1 VL
B8: humanized ICR62 antibody I-HHD/I-KC3 (antibody, human IgG1, V domains shown)
VH: B3 VH with G24A
VL: B1 VL with N34G
B9: humanized ICR62 antibody I-HLA/I-KB (antibody, human IgG1, V domains shown)
VH: B2 VH
VL: B1 VL with R24K, G28N, F71Y
B10: humanized ICR62 antibody I-HHD-10/I-KC (antibody, human IgG1, V domains shown)
VH: B3 VH with G24A, V106G
VL: B1 VL
B11: humanized ICR62 antibody I-HLA4/I-KC (antibody, human IgG1, V domains shown)
VH: B1 VH with F27Y
VL: B1 VL
B12: humanized ICR62 antibody I-HLA3/I-KC (antibody, human IgG1, V domains shown)
VH: B1 VH with F27Y, N61S, E62P, K63S
VL: B1 VL
B13: humanized ICR62 antibody I-HLA6/I-KC (antibody, human IgG1, V domains shown)
VH: B1 VH with V2M, A9P, A16T
VL: B1 VL
B14: humanized ICR62 antibody I-HHF/I-KC (antibody, human IgG1, V domains shown)
VH: B3 VH with T59N
VL: B1 VL
B15: humanized ICR62 antibody I-HHG/I-KC (antibody, human IgG1, V domains shown)
VH: B3 VH with S58A
VL: B1 VL
B16: humanized ICR62 antibody I-HLA9/I-KC (antibody, human IgG1, V domains shown)
VH: B3 VH with Q1E, S16E, V18L, V20I, F27Y, T28S
VL: B1 VL
B17: humanized ICR62 antibody I-HHD-8/I-KC (antibody, human IgG1, V domains shown)
VH: B3 VH with G24A, Y57T
VL: B1 VL
B18: humanized ICR62 antibody I-HHC/I-KB (antibody, human IgG1, V domains shown)
VH: B3 VH with A61N, Q62E, Q65K, G66S
VL: B1 VL with R24K, G28N, F71Y
notes: I-HHC was also paired with I-KA and the chimeric light chain
B19: chimeric rat-human ICR62 antibody (antibody, human IgG1, V domains shown)
VH: QVNLLQSGAALVKPGASVKLSCKGSGFTFTDYKIHWVKQSHGKSLEWIGYFNPNSGYSTYNEKFKSKATLTADKSTDTAYMELTSLTSEDSATYYCTRLSPGGYYVMDAWGQGASVTVSS
VL: DIQMTQSPSFLSASVGDRVTINCKASQNINNYLNWYQQKLGEAPKRLIYNTNNLQTGIPSRFSGSGSGTDYTLTISSLQPEDFATYFCLQHNSFPTFGAGTKLELKR
notes: also called ch-ICR62; chimeric ICR62
B20: humanized ICR62 antibody I-HHD-11/I-KC (antibody, human IgG1, V domains shown)
VH: B3 VH with G24A, A109V
VL: B1 VL
B21: humanized ICR62 antibody I-HHD-6/I-KC (antibody, human IgG1, V domains shown)
VH: B3 VH with G24A, P53A
VL: B1 VL
B22: humanized ICR62 antibody I-HHD-7/I-KC (antibody, human IgG1, V domains shown)
VH: B3 VH with G24A, N54I
VL: B1 VL
B23: humanized ICR62 antibody I-HHD-1/I-KC (antibody, human IgG1, V domains shown)
VH: B3 VH with G24A, F27G
VL: B1 VL
B24: humanized ICR62 antibody I-HHD-4/I-KC (antibody, human IgG1, V domains shown)
VH: B3 VH with G24A, D31E
VL: B1 VL
B25: humanized ICR62 antibody I-HHD-2/I-KC (antibody, human IgG1, V domains shown)
VH: B3 VH with G24A, T28S
VL: B1 VL
B26: humanized ICR62 antibody I-HHD-9/I-KC (antibody, human IgG1, V domains shown)
VH: B3 VH with G24A, S58A
VL: B1 VL
B27: humanized ICR62 antibody I-HHD/I-KC9 (antibody, human IgG1, V domains shown)
VH: B3 VH with G24A
VL: B1 VL with F94Y
B28: humanized ICR62 antibody I-HHD/I-KC7 (antibody, human IgG1, V domains shown)
VH: B3 VH with G24A
VL: B1 VL with N53S
B29: humanized ICR62 antibody I-HHD/I-KC6 (antibody, human IgG1, V domains shown)
VH: B3 VH with G24A
VL: B1 VL with N52S
B30: humanized ICR62 antibody I-HHD/I-KC5 (antibody, human IgG1, V domains shown)
VH: B3 VH with G24A
VL: B1 VL with T51A
B31: humanized ICR62 antibody I-HHD/I-KC4 (antibody, human IgG1, V domains shown)
VH: B3 VH with G24A
VL: B1 VL with N50T
B32: humanized ICR62 antibody I-HHD/I-KC2 (antibody, human IgG1, V domains shown)
VH: B3 VH with G24A
VL: B1 VL with Y32W
B33: humanized ICR62 antibody I-HHD/I-KC8 (antibody, human IgG1, V domains shown)
VH: B3 VH with G24A
VL: B1 VL with T56S
B34: humanized ICR62 antibody I-HHD/I-KC1 (antibody, human IgG1, V domains shown)
VH: B3 VH with G24A
VL: B1 VL with N30R

Target: T1, human epidermal growth factor receptor (EGFR) (human, UniProt P00533 25-1210)
T1 construct: whole, on cells; also called HER-1; ErbB1
Test: flow cytometry on A431 cells
Experimental: The purified, monomeric humanized antibody variants were tested for binding to human epidermal growth factor receptor (EGFR, also referred to in the literature as HER-1 or ErbB1) on the A431 human epidermal cell line, using a flow cytometry-based assay. 200,000 cells (e.g., from human A431 cell line) in 180 μl FACS buffer (PBS containing 2% FCS and 5 mM EDTA) were transferred to 5 ml polystyrene tubes and 20 μl 10 fold concentrated anti-EGFR antibody (primary antibody) samples (1-5000 ng/ml final concentration) or PBS only were added. After gently mixing the samples, the tubes were incubated at 4° C. for 30 min in the dark. Subsequently, samples were washed twice with FACS buffer and pelleted at 300×g for 3 min. Supernatant was aspirated off and cells were taken up in 50 μl FACS buffer and 2 μl secondary antibody (anti-Fc-specific F(ab′)2-FITC fragments (Jackson Immuno Research Laboratories, USA)) was added and the tubes were incubated at 4° C. for 30 min. Samples were washed twice with FACS buffer and taken up in 500 μl of FACS buffer for analysis by Flow Cytometry. Binding was determined by plotting the geometric mean fluorescence against the antibody concentrations.

| EC50 | binding result | EC50 fold decrease relative to ch-ICR62 | EC50 fold increase relative to ch-ICR62, I-HLA1 and I-HLA2 | EC50 fold increase relative to I-KC (paired with I-HHD) | EC50 fold increase relative to I-HHD parent construct | EC50 fold lower relative to I-HLA4 | Binder |
| --- | --- | --- | --- | --- | --- | --- | --- |
| ~0.3 µg/mL | – | – | – | – | – | – | B1 |
| – | binds | – | – | – | – | – | B2 |
| – | binds | – | – | – | – | – | B3 |
| ~0.3 µg/mL | – | – | – | – | – | – | B4 |
| – | binds | – | – | – | – | – | B5 |
| – | – | 2 fold | – | – | – | – | B6 |
| – | – | – | 2 fold | – | – | – | B7 |
| – | – | – | – | 10 fold | – | – | B8 |
| – | binds | – | – | – | – | – | B9 |
| – | – | – | – | – | 10 fold | – | B10 |
| – | – | – | 2 fold | – | – | – | B11 |
| – | – | – | 2 fold | – | – | – | B12 |
| – | – | – | 2 fold | – | – | – | B13 |
| – | binds | – | – | – | – | – | B14 |
| – | binds | – | – | – | – | – | B15 |
| – | binds | – | – | – | – | – | B16 |
| – | – | – | – | – | 10 fold | – | B17 |
| – | binds | – | – | – | – | – | B18 |
| ~0.3 µg/mL | – | – | – | – | – | 2 fold | B19 |

Target: T1, human epidermal growth factor receptor …
Test: flow cytometry on A431 cells, heavy chain paired with I-KC

| binding result | Binder |
| --- | --- |
| binds | B20 |
| binds | B21 |
| binds | B22 |
| binds | B23 |
| binds | B24 |
| binds | B25 |
| binds | B26 |

Target: T1, human epidermal growth factor receptor …
Test: flow cytometry on A431 cells, light chain paired with I-HHD

| binding result | Binder |
| --- | --- |
| binds | B27 |
| binds | B28 |
| binds | B29 |
| binds | B30 |
| binds | B31 |
| binds | B32 |
| binds | B33 |
| binds | B34 |
